± gives the uncertainty stated by the source.
Experiment: self-splicing fitness, log relative to wild type (ln ratio); higher = more splicing; Tetrahymena group I intron in knt gene, E. coli kanamycin selection, DiMSum; sequences stand for … in CUCUCU…GGAGGGAAAAGUUAUCAGGCAUGCACCUGGUAGCUAGUCUUUAAACCAAUAGAUUGCAUCGGUUUAAAAGGCAAGACCGUCAAAUUGCGGGAAAGGGGUCAACAGCCGUUCAGUACCAAGUCUCAGGGGAAACUUUGAGAUGGCCUUGCAAAGGGUAUGGUAAUAAGCUGACGGACAUGGUCCUAACCACGCAGCCAAGUCCUAAGUCAACAGAUCUUCUGUUGAUAUGGAUGCAGUUCACAGACUAAAUGUCGGUCGGGGAAGAUGUAUUCUUCUCAUAAGAUAUAGUCGGACCUCUCCUUAAUGGGAGCUAGCGGAUGAAGUGAUGCAACACUGGAGCCGCUGGGAACUAAUUUGUAUGCGAAAGUAUAUUGAUUAGUUUUGGAGUACUCGUGGUCG
Outline: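 Pooled colonies went to amplicon sequencing on an Illumina HiSeq 2500 after six replicate transformations. The plates were LB agar with 100 μg/mL carbenicillin, 50 μM IPTG and 0.2% rhamnose, with or without 25 μg/mL kanamycin, incubated overnight at 37°C or 30°C. The E. coli BL21(DE3) library had all eight P1ex-region intron nucleotides randomised, the intron placed in the knt kanamycin-resistance gene on pET-22b(+). DiMSum fitness is the error-weighted combination of replicate fold changes, kanamycin against none, normalised to wild type.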

Sequence | self-splicing fitness (ln) (30 °C) | self-splicing fitness (ln) (37 °C)
UAGAAGCAAUAUUACGCCCA | -0.128 ± 0.15 | 0.21 ± 0.25
UAGAAGCAAUAUUACGCCCC | -3.03 ± 0.2 | -1.63 ± 0.23
UAGAAGCAAUAUUACGCCUU | -1.03 ± 0.22 | -1.38 ± 0.26
UAGAAGCAAUAUUACGCGAU | -2.95 ± 0.41 | –
UAGAAGCAAUAUUACGCGCC | -3.18 ± 0.24 | -0.65 ± 0.13
UAGAAGCAAUAUUACGCGCG | -0.301 ± 0.12 | -0.204 ± 0.13
UAGAAGCAAUAUUACGCUAU | -4.05 ± 0.27 | -3.13 ± 0.27
UAGAAGCAAUAUUACGCUCG | -1.06 ± 0.13 | -0.333 ± 0.12
UAGAAGCAAUAUUACGGAAC | -1.25 ± 0.34 | –
UAGAAGCAAUAUUACGGCAU | -1.96 ± 0.12 | -0.323 ± 0.094
UAGAAGCAAUAUUACGGCUG | -0.338 ± 0.11 | 0.218 ± 0.15
UAGAAGCAAUAUUACGGGGG | – | -2.25 ± 0.45
UAGAAGCAAUAUUACGGUGA | -1.28 ± 0.12 | -0.667 ± 0.12
UAGAAGCAAUAUUACGGUUU | -3.09 ± 0.17 | -2.28 ± 0.16
UAGAAGCAAUAUUACGUAUG | -1.01 ± 0.07 | -1.14 ± 0.11
UAGAAGCAAUAUUACGUUCC | -2.51 ± 0.19 | -0.539 ± 0.17
UAGCAGCAAUAUUACGAAUC | -3.68 ± 0.42 | -2.03 ± 0.27
UAGCAGCAAUAUUACGACGG | -0.73 ± 0.09 | -0.313 ± 0.12
UAGCAGCAAUAUUACGACUU | -0.541 ± 0.098 | 0.107 ± 0.11

Sequence | self-splicing fitness (ln) (30 °C) | self-splicing fitness (ln) (37 °C)
UAGCAGCAAUAUUACGAGCA | -1.48 ± 0.13 | 0.249 ± 0.13
UAGCAGCAAUAUUACGAUUU | -2.03 ± 0.11 | -0.879 ± 0.12
UAGCAGCAAUAUUACGCAUU | -2.38 ± 0.13 | -1.08 ± 0.11
UAGCAGCAAUAUUACGCGCG | -1.09 ± 0.17 | 0.624 ± 0.17
UAGCAGCAAUAUUACGCGCU | -2.62 ± 0.12 | -1.6 ± 0.12
UAGCAGCAAUAUUACGCUAA | -2.07 ± 0.26 | -1.73 ± 0.27
UAGCAGCAAUAUUACGCUAU | -3.88 ± 0.23 | -3.49 ± 0.37
UAGCAGCAAUAUUACGCUCU | -1.27 ± 0.087 | -1.04 ± 0.088
UAGCAGCAAUAUUACGGCCG | -0.163 ± 0.071 | 0.0112 ± 0.085
UAGCAGCAAUAUUACGUACU | -1.74 ± 0.1 | -0.434 ± 0.1
UAGCAGCAAUAUUACGUAGU | -2.15 ± 0.14 | -2.48 ± 0.31
UAGCAGCAAUAUUACGUAUA | -1.89 ± 0.096 | -0.924 ± 0.12
UAGCAGCAAUAUUACGUAUG | -1.13 ± 0.061 | -0.563 ± 0.084
UAGCAGCAAUAUUACGUCAA | -1.79 ± 0.12 | -1.21 ± 0.11
UAGCAGCAAUAUUACGUCCG | -0.746 ± 0.055 | 0.357 ± 0.08
UAGCAGCAAUAUUACGUUGC | -2.57 ± 0.21 | -1.91 ± 0.21
UAGGAGCAAUAUUACGACGG | -2.88 ± 0.13 | -0.471 ± 0.12
UAGGAGCAAUAUUACGAGUA | -2.81 ± 0.24 | -1.93 ± 0.22
UAGGAGCAAUAUUACGCCAA | -3.23 ± 0.4 | -2.13 ± 0.42
